Source: patent publication US10100317B2, “Compositions of matter that reduce pain, shock, and inflammation by blocking linoleic acid metabolites and uses thereof” (Board of Regents of the University of Texas System, priority 2012, dated 2018)
Entries after “also recorded” stand apart in the source; their conditions may differ.

What was measured:
TRPV1 in the spinal cord = details: completely reversible by a TRPV1 antagonist; cited from earlier work
normal rats = assay: Spontaneous nocifensive behaviors after linoleic acid injection in normal rats (FIG. 3A); assay type: in vivo, rat
[1] = test system: TRPV1 knock-out (KO) mice; assay: LA-triggered nocifensive behaviors in TRPV1 knock-out versus wild type mice (FIG. 3C); assay type: in vivo; details: TRPV1 KO mice compared to wild type mice
[2] = test system: LA-evoked nofifensive behaviors; assay: LA-evoked nocifensive behaviors after capsazepine pretreatment (FIG. 3B); assay type: in vivo; details: pretreatment before linoleic acid
[3] = ELASA (ELISA-like) plate screening of aptamers against 13-HODE / biotinylated 13-HODE; assay type: binding; details: for Trial 1 Abs 405 nm: ELASA trial 1; for Trial 1 Abs 405 nm / Trial 2 Abs 405 nm / Trial 3 Abs 405 nm: 13-HODE / biotinylated 13-HODE aptamers, absorbance 10-15 minutes after final addition of ABTS substrate; for Trial 2 Abs 405 nm: ELASA trial 2; for Trial 3 Abs 405 nm: ELASA trial 3; for Affinity ranking in ELASA plate screening: biotinylated 13-HODE target, three trials, done in triplicate
Experimental: (§1) To evaluate, screen, and rank aptamers based on affinity against their cognate HODE isomers, two different approaches are used. The first involved the use of Corning Costar Universal Bind™ microplates (No. 2503) for ultraviolet (UV) immobilization of 200 ng/well of unlabeled HODES to the plate's surface (Bruno et al., 2008 and 2009) using 0.2 Joules/cm^2 in a UV crosslinker oven for 15 minutes. The second involved streptavidin (SAv)-coated microwell strips (Nunc, Inc. Catalogue #436020) in which 400 ng of the biotinylated-13-HODE are immobilized for 30 minutes at RT with gentle mixing in 200 μl of PBS per well.
(§2) Plates or wells are decanted and washed three times in 250 μl of 1×BB. Each of the different 5′-biotinylated aptamers raised against the target is dissolved in 1×BB at 1.00 nmole per 100 microliters and applied to their corresponding plate wells for 1 hour at RT with gentle mixing on an orbital shaker. The plate is decanted and washed three times in 250 μl of 1×BB for at least 5 minutes per wash with gentle mixing. One hundred μl of a 1:2,000 dilution of SAv-peroxidase from a 5 mg/ml stock solution in 1×BB is added per well for 30 minutes at RT with gentle mixing. The plate is decanted and washed three times with 250 μl of 1×BB per well as before.
(§3) One hundred μl of ABTS (2,2′-azino-bis(3-ethylbenzthiazoline-6-sulphonic acid) substrate with stabilized hydrogen peroxide (Kirkegaard Perry Laboratories, Inc., Gaithersburg, Md.) is added per well for 10 minute at RT. Various deletion control wells without biotinylated aptamers or SAv-peroxidase are set up and evaluated to establish background levels as well. Finally absorbance is quantified using a microplate reader with 405 nm optical filter.
(§4) These aptamers were: H9-3/19F and B13-9R for the 9-HODE and biotinylated 13-HODE targets respectively and they proceeded into animal testing.

[4] = ELASA (ELISA-like) plate screening of aptamers against 9-HODE; assay type: binding; details: for Trial 3 Abs 405 nm: ELASA trial 3; for Affinity ranking in ELASA plate screening: 9-HODE target, three trials, done in triplicate; for Trial 1 Abs 405 nm: ELASA trial 1
Experimental: as §1, §2, §3, §4

[5] = SPR analysis (Biacore X100) with immobilized 13(S)-HODE-Biotin; assay type: binding; details: CM5 chip, 1×HBS-EP+ buffer, aptamer 20-80 μM, contact 90 s, dissociation 600 s; read-out: dissociation constant, KD
Experimental: SPR Analysis of H9-3/19F Aptamer and B13-9R Aptamer with 13(S)-HODE-Biotin
13(S)-HODE-Biotin was immobilized on a CM5 sensor chip utilizing biotin-streptavidin chemistry. Various concentrations of H9-3/19F aptamer (SEQ ID. NO. 84) were flowed through the Biacore X100 with 1×HBS-EP+ running buffer at a flow rate of 30 μl/min and allowed a contact time with the surface-bound ligand of 90 seconds, followed by a dissociation time set at 600 seconds. The following concentrations of aptamer were used: 20 μM, 40 μM, 60 μM and 80 μM.
13(S)-HODE-Biotin was immobilized on a CM5 sensor chip utilizing biotin-streptavidin chemistry. Various concentrations of B13-9R aptamer (SEQ ID. NO. 67) were flowed through the Biacore X100 with 1×HBS-EP+ running buffer at a flow rate of 30 μl/min and allowed a contact time with the surface-bound ligand of 90 seconds, followed by a dissociation time set at 600 seconds. The following concentrations of aptamer were used: 20 μM, 40 μM, 60 μM and 80 μM.

[6] = test system: cultured capsaicin-sensitive neurons; assay: Patch clamp electrophysiology of cultured capsaicin-sensitive neurons; assay type: cell-based
[7] = test system: rat hindpaws inflamed with complete Freund's adjuvant (CFA); assay: Pain responses in rat hindpaws inflamed with complete Freund's adjuvant (CFA); assay type: in vivo; details: local (hindpaw) injection, FIG. 2
[8] = 9-HODE aptamers, absorbance 10-15 minutes after final addition of ABTS substrate

Question: For COc1cc(CNC(=O)CCCC/C=C/C(C)C)ccc1O [capsaicin], which tactile allodynia (TRPV1 in the spinal cord) is on record?
Answer: The tactile allodynia was “results in tactile allodynia”.

Question: Which spontaneous nocifensive behaviors (normal rats) does the source give for CCCCC/C=C\C/C=C\CCCCCCCC(=O)O [linoleic acid, cis, cis-9,12-octadecadienoic acid] here?
Answer: The spontaneous nocifensive behaviors was “does not produce a significant increase”.

Question: What about the LA-triggered nocifensive behaviors [1] of the same molecule?
Answer: Its LA-triggered nocifensive behaviors is “significantly reduced”.

Question: Which tactile allodynia (TRPV1 in the spinal cord) does the source give for “9-hydroxyoctadecadienoic acid [Aptamer 9-HODE]” here?
Answer: The tactile allodynia was “results in tactile allodynia”.

Question: Which LA-evoked nocifensive behaviors [2] does the source give for Oc1cc2c(cc1O)CN(C(=S)NCCc1ccc(Cl)cc1)CCC2 [capsasepine] here?
Answer: The LA-evoked nocifensive behaviors was “significantly reduced”.

B1: B13-8F: DNA aptamer clone, biotinylated 13-HODE target (nucleic acid)
DNA: ATACGGGAGCCAACACCAGCGAAGCCAAAACTGGTCGGGCCGACGGGATTCGTTAGAGCAGGTGTGACGGAT
modifications: DNA, backbone not given here
notes: DNA aptamer clone, biotinylated 13-HODE target
Question: For B1, which “Trial 1 Abs 405 nm” value [3] is on record?
Answer: The value was 1.490.

B2: H13-12F: DNA aptamer clone, 13-HODE target (nucleic acid)
DNA: ATACGGGAGCCAACACCATGTTACATCAACTGCATGAAGACGAGGAATGTGATGAGAGCAGGTGTGACGGAT
modifications: DNA, backbone not given here
notes: DNA aptamer clone, 13-HODE target
Question: With B2 as the molecule, how does the “Trial 1 Abs 405 nm” value [3] read?
Answer: Its value is 1.442.

B3: B13-1a/4/6/15/17/19/20R: DNA aptamer clone, biotinylated 13-HODE target (nucleic acid)
DNA: ATCCGTCACACCTGCTCTCGAGTATAAGGGGGAGTTGCATAACGCTAAACTTTGTGGTGTTGGCTCCCGTAT
modifications: DNA, backbone not given here
notes: as for B1
Question: Which “Trial 2 Abs 405 nm” value [3] does the source give for B3 here?
Answer: The value was 1.595.

B4: B13-10bR: DNA aptamer clone, biotinylated 13-HODE target (nucleic acid)
DNA: ATCCGTCACACCTGCTCTGCGGACAGCGGTTGCGCATATATCGTGGCAGTGGGCTGGTGTTGGCTCCCGTAT
modifications: DNA, backbone not given here
notes: as for B1
Question: For B4, which “Trial 2 Abs 405 nm” value [3] is on record?
Answer: Its value is 1.214.

B5: B13-12R: DNA aptamer clone, biotinylated 13-HODE target (nucleic acid)
DNA: ATCCGTCACACCTGCTCTGCCATTGAATCTCATATGGTGCTCGAGTAGCTGGTGTGGTGTTGGCTCCCGTAT
modifications: DNA, backbone not given here
notes: as for B1
Question: Which “Trial 3 Abs 405 nm” value [3] does the source give for B5 here?
Answer: Its value is 1.310.

B6: H13-1/2-4/6-8/14-18/20F: DNA aptamer clone, 13-HODE target (nucleic acid)
DNA: ATACGGGAGCCAACACCACAAAGTTTAGCGTTATGCAACTCCCCCTTATACTCGAGAGCAGGTGTGACGGAT
modifications: DNA, backbone not given here
notes: as for B2
Question: Which “Trial 2 Abs 405 nm” value [3] does the source give for B6 here?
Answer: Its value is 1.199.

Question: And the “Trial 3 Abs 405 nm” value [3]?
Answer: The value was 1.387.

B7: H9-2/4-6/8a/9b/14/20F: DNA aptamer clone, 9-HODE target (nucleic acid)
DNA: ATACGGGAGCCAACACCACAAAGTTTAGCGTTATGCAACTCCCCCTTATACTCGAGAGCAGGTGTGACGGAT
modifications: DNA, backbone not given here
notes: DNA aptamer clone, 9-HODE target
Question: For B7, which “Trial 3 Abs 405 nm” value [4, 8] is on record?
Answer: The value was 1.249.

B8: 5′-ATCCGTCACACCTGCTCTGGGGGGGGAAGCTCGTGGTATAAGGGGCGTTGAGGTGGTGTTGGCTCCCGTAT-3′ (nucleic acid)
DNA: ATCCGTCACACCTGCTCTGGGGGGGGAAGCTCGTGGTATAAGGGGCGTTGAGGTGGTGTTGGCTCCCGTAT
modifications: DNA, backbone not given here
notes: DNA aptamer for the OLAM 13-HODE
Question: For B8, which “Trial 1 Abs 405 nm” value [3] is on record?
Answer: Its value is 1.549.

Question: And the “Trial 2 Abs 405 nm” value [3]?
Answer: Its value is 1.885.

Question: What about the “Trial 3 Abs 405 nm” value [3] of the same molecule?
Answer: The value was 1.964.

Question: What about the “Affinity ranking in ELASA plate screening” value (“Affinity ranking” below) [3] of the same molecule?
Answer: Its value is “highest affinity; also recorded: top two to three strongest absorbance signals”.

Question: What about the “Affinity ranking” value ([3]; listed as SEQ ID NO. 67) of the same molecule?
Answer: Its value is “highest binding affinity”.

Question: And the Kd [5]?
Answer: The Kd was 2.56 nM.

B9: 5′-ATACGGGAGCCAACACCACCGAATGTGCTGCAGGACTAATCTGGATGGCCATGCAGAGCAGGTGTGACGGAT-3′ (nucleic acid)
DNA: ATACGGGAGCCAACACCACCGAATGTGCTGCAGGACTAATCTGGATGGCCATGCAGAGCAGGTGTGACGGAT
modifications: DNA, backbone not given here
notes: DNA aptamer for the OLAM 9-HODE
Question: For B9, which “block of capsaicin response (selectivity)” value ([6]; capsaicin itself / TRPV1 directly) is on record?
Answer: The value was “does not block capsaicin itself”.

Question: What about the “activation of cultured capsaicin-sensitive neurons” value ([6]; pre-treatment with aptamer, 9-HODE response, preliminary data, FIG. 1) of the same molecule?
Answer: Its value is “blocks activation”.

Question: What about the “Affinity ranking” value [4] of the same molecule?
Answer: Its value is “highest affinity; also recorded: top two to three strongest absorbance signals”.

Question: And the “Affinity ranking” value ([4]; listed as SEQ ID NO. 84)?
Answer: The value was “highest binding affinity”.

Question: What about the “Trial 1 Abs 405 nm” value [4, 8] of the same molecule?
Answer: The value was 2.081.

Question: And the “Trial 2 Abs 405 nm” value ([4]; ELASA trial 2, 9-HODE aptamers, absorbance 10-15 minutes after final addition of ABTS substrate)?
Answer: Its value is 1.648.

Question: What about the “Trial 3 Abs 405 nm” value [4, 8] of the same molecule?
Answer: The value was 1.640.

Question: And the Kd [5]?
Answer: The Kd was 0.129 nM.

Question: What about the “pain responses to mechanical stimuli” value [7] of the same molecule?
Answer: The value was “significant reduction in pain responses”.

Question: What about the “pain responses to thermal stimuli” value [7] of the same molecule?
Answer: The value was “significant reduction in pain responses”.

B10: H9-3/19R: DNA aptamer clone, 9-HODE target (nucleic acid)
DNA: ATCCGTCACACCTGCTCTGCATGGCCATCCAGATTAGTCCTGCAGCACATTCGGTGGTGTTGGCTCCCGTAT
modifications: DNA, backbone not given here
notes: as for B7
Question: For B10, which “Trial 1 Abs 405 nm” value [4, 8] is on record?
Answer: Its value is 1.571.
